Experimental findings from paper PMC8411030 are described below.

For the assay, the target named is N-terminal domain of NOEY2 (NOEY2-N), LexA fusion (pGilda/LexA-NOEY2-N) (human) (UniProt O95661). Briefly: two-hybrid.
Chain of UniProt O95661 (O95661 whole entry, the tested form may be a part): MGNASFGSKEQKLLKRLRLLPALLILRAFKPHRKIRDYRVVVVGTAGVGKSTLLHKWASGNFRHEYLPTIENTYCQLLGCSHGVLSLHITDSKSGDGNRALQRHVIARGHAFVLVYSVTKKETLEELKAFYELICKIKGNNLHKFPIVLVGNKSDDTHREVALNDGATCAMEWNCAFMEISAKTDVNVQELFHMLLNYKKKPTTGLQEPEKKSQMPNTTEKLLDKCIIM

“VEGFR-2, B42 fusion (pJG4-5) (from UniProt P35968 1-1356) (receptor)” registered a β-galactosidase activity of 92.2 unit.
